Where no end group is shown, it is not given here. [ ]: non-standard residue; d: D form.

Assay [1] concerns P. falciparum-infected erythrocytes. Type of assay: cell-based. The conditions noted are these: FIG. 3A; read-out: IC50, competitive inhibition of cytoadherence. As for the experimental part: (§1) The Gambian FCR-3 strain of P. falciparum was cultured according to the literature method [Trager, W. & J. Jensen (1976) Science 193:673-675]. Cultures were synchronized at the ring stage by sorbitol lysis of mature forms [Lambros, C. & J. P. Vanderberg (1980) J. Parasitology 65:418-20]. Knobless parasite cultures were produced from a knobby FCR-3 line and maintained as described previously [Crandall, I. E. et al. (1994) Cell Adhesion & Communication 2(6):503-510].
(§2) Cytoadherence assays were carried out as described previously [Udeinya et al. (1981), supra; Crandall et al. (1991), supra] except that BTS buffer (50 mM Bis Tris, 130 mM NaCl, pH 6.6) was substituted for BTC buffer (i.e. the Ca^+ was omitted from the cytoadherence assay buffer). Rosetting was measured as described previously [Crandall et al. (1994), supra].
(§3) In order to determine if the action of the antibody was due to the non-competitive removal of the sequence FSFCETNGLEYI [SEQ ID NO:44], the antibody's epitope, or whether it was the result of steric hindrance or induced conformational change of the protein associated with the antibody's binding, the effect of adding increased amounts of the peptide FSFCETNGLE [SEQ ID NO:26] to rosetting and cytoadherence assays was determined. […] FIG. 3A illustrates the results of adding the indicated peptides to the incubation medium of a cytoadherence assay. […]

Assay [2] has as its system P. falciparum-infected erythrocytes (rosetting). The assay is classed as cell-based. The conditions noted are these: FIG. 3B; read-out: IC50, competitive inhibition of rosetting. As for the experimental part:
as §1, §2, §3

The target of the next assay is human band 3 protein (human, UniProt P02730). The assay is described as follows: cell-based or functional assay.
In the next assay the target is CD36 (Homo sapiens (Human), UniProt P16671). The assay is described as follows: cell-based or functional assay.

A word on the IC50: it is the concentration that gives 50% inhibition. With FSFCETNGLE [Peptide 2f, FSFCETNGLE], the IC50 is 4 µM in assay [1] and 3 µM in assay [2].

Regarding FSFCETNGLE [peptide 2f, FSFCETNGLE], in the assay with human band 3 protein, the “50% inhibition of sickle cell binding to HUVEC” value (“50% inhibition” below) was 4 µg/mL, the “IC50 of inhibition of cytoadherence of P. falciparum-infected erythrocytes” value was 4 µM and the “IC50 of inhibition of rosetting of P. falciparum-infected erythrocytes” value is 3 µM.

As to GHPLQKTY [peptide 3d, GHPLQKTY], the “50% inhibition” value in the assay with CD36 was 4 µg/mL.

Consider G[dH][dP][dL][dQ][dK][dT][dY] [D-isomer of peptide 3d], for which the “50% inhibition” value with CD36 was 4 µg/mL.

For the origin of these results see US6124262A, “Compositions and methods for reducing adhesiveness of defective red blood cells” (The Regents of the University of California, dated 2000).
